Common to all, as to assay: pull-down binding Z-score (relative to library population); higher = stronger binding
Data set [1] concerns TO-3-N3 (biotin conjugate). The note with it: RNA library: Library-2. An outline of the steps:
(§1)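 To score binding, a beads-only signal was subtracted, barcoded replicate probes were averaged with the highest and lowest dropped, and the value was converted to a Z-score using the library mean and standard deviation. The input was 1 μg of Cy5- or Cy3-end-labelled RNA library, heat-folded in phosphate/NaCl/KCl buffer and mixed for 60 min at 25 °C with streptavidin beads carrying 100 pmol of biotin-conjugated small molecule. Bound RNA was eluted in hot SDS and hybridised to a DNA barcode microarray at 55.5 °C for 20 h.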

Data set [2] deals with TO-3-N3-2 (biotin conjugate). To be noted: RNA library: Library-2. An outline of the steps:
as §1

Data set [3] deals with G-clamp-N3 (biotin conjugate). To be noted: RNA library: Library-1 (pre-miRNA loops + repeats). An outline of the steps: as §1
The subject of data set [4] is TO-N3-2 (biotin conjugate). To be noted: RNA library: Library-2. An outline of the steps:
as §1

Another data set relates to TO-N3 (biotin conjugate). The note with it: RNA library: Library-2. An outline of the steps:
as §1

With “CAUGUGGUGGAACGAUGGAAACGGAACAUG [hsa-mir-218-2]”, the “pull-down binding Z-score” value in data set [1] was -0.477; in data set [2], -0.027; in data set [3], 1.07; in data set [4], 1; with TO-N3 (biotin conjugate) it was 0.162.
Taken in the same sequence, the figures for “CCUGCCUGCCCUCCAGGUCAUGUUCCAGUGUCCCACAGAUGCAGCACCACGG [hsa-mir-6075]” were 0.0521, 0.186, -0.799, 1.54 and 0.616.
For “GGAUCAUGUUUGCCCCCGUGGACAGCUCUCUGGUGUGCUCCUCCUGCCAUCCUGCCCACCCCUGCAUAAUGCUGCUUC [hsa-mir-6809]”, in that order: 0.306, 0.384, -1.25, 1.5 and 1.02.
For CUGUGGUUUGCUGGCUGCCUCAG [hsa-mir-6736], in that order: 0.2, -0.353, -0.566, 0.776 and 0.467.
Take “AGCAGUACCAGAUGGUUCUGUGG [hsa-mir-3198-2]”: the “pull-down binding Z-score” value is -0.0816 in data set [1]; -0.262 in data set [2]; -1.54 in data set [3]; -0.167 in data set [4]; -0.0604 in the data set with TO-N3 (biotin conjugate).
For UUUACAUAUAAAUUUCUAUUUGU [hsa-mir-4503], in that order: 0.81, 0.317, -1.51, -0.557 and 0.596.
Regarding ACCAAAAAUGAUAUGGGU [hsa-mir-7977], the “pull-down binding Z-score” value in data set [1] was -0.344; in data set [2], 0.11; in data set [3] it was 1.5; in data set [4], -0.381; in the data set with TO-N3 (biotin conjugate), -0.532.
Taken in the same sequence, the figures for GGGAUAUUUGCAUUAUACUUAUCC [hsa-mir-5009] were 0.0656, 0.015, -0.101, -0.458 and -0.0499.
For “UACAAUUUUUUUUUUUUUAAAUUUUA [hsa-mir-1303]”, in that order: -0.51, 0.111, 0.8, -1.17 and -0.893.
Taken in the same sequence, the figures for UGGGCCAAG [hsa-mir-3620] were 0.746, 0.193, -0.636, 0.487 and 0.825.
As to “GGCCUGGGAUUCCUGCCUUCUAGGUC [hsa-mir-8078]”, the “pull-down binding Z-score” value in data set [1] was 0.742; in data set [2] it was -0.0252; in data set [3], -0.278; in data set [4], 0.307; in the data set with TO-N3 (biotin conjugate), 0.707.
For “AGGACACAGGCUGGCACUGAGGUCCC [hsa-mir-6887]”, the “pull-down binding Z-score” value was 0.0768 in data set [1]; -0.0807 in data set [2]; -0.394 in data set [3]; 1.41 in data set [4]; 0.639 with TO-N3 (biotin conjugate).
For “UCAGGCUUUAAUGUUUGAAGUAAUGUCAGU [hsa-mir-6874]”, in that order: 0.511, 0.146, 0.286, 0.228 and 0.555.
On to AAGCUGACAGACAGCUG [hsa-mir-5691], for which the “pull-down binding Z-score” value was -0.057 in data set [1]; -0.398 in data set [2]; 1.16 in data set [3]; 0.218 in data set [4]; 0.144 in the data set on TO-N3 (biotin conjugate).
For the sequence CAGUGGCAGAUUUUCCCAUAG [hsa-mir-4727], the “pull-down binding Z-score” value is -0.543 in data set [1]; -0.261 in data set [2]; -1.12 in data set [3]; -0.00285 in data set [4]; -0.439 with TO-N3 (biotin conjugate).
As for “GCUUCUGCUGCAUGAUCUCCGAGUCCCUGGGGGUAGAGAUGAUGGGGCACUGGGAGGU [hsa-mir-1282]”, the “pull-down binding Z-score” value was determined as 0.113 in data set [1]; 0.312 in data set [2]; 0.676 in data set [3]; 0.851 in data set [4]; 0.59 in the data set with TO-N3 (biotin conjugate).
On to “AAUUUUGAUGAGUAUCAUAGGAGAAAAAUU [hsa-mir-363]”, for which the “pull-down binding Z-score” value in data set [1] was -0.302; in data set [2], 0.27; in data set [3], 1.49; in data set [4], 0.542; with TO-N3 (biotin conjugate), -0.184.
Turning to “UGGCAAAGGGGUAGCUAAACAAUCUAUGUCUUUGCCA [hsa-mir-3119-1]”, the “pull-down binding Z-score” value in data set [1] is -0.367; in data set [2], 0.00332; in data set [3], 1.24; in data set [4] it was -0.555; in the data set with TO-N3 (biotin conjugate) it was -0.525.
As to CUGUUGAAAGAAAAG [hsa-mir-526a-2], the “pull-down binding Z-score” value was 0.496 in data set [1]; 0.511 in data set [2]; -0.371 in data set [3]; 0.598 in data set [4]; 1.01 in the data set with TO-N3 (biotin conjugate).
On to UCCUGAGACAGGA [hsa-mir-4261], for which the “pull-down binding Z-score” value in data set [1] is -0.563; in data set [2] it was -0.5; in data set [3], -0.47; in data set [4], -1.02; in the data set with TO-N3 (biotin conjugate), -0.807.
CAUUCUUUGCUA [hsa-mir-567]: the “pull-down binding Z-score” value in data set [1] was 0.85; in data set [2] it was -0.257; in data set [3], -1.3; in data set [4], -0.53; in the data set with TO-N3 (biotin conjugate) it was 0.664.
For “CUUUCUGUUGGCUAAAAGAAAAGAAAG [hsa-mir-518e]”, in that order: -0.396, 0.129, 1.11, 0.0576 and -0.366.
On to CAUGCGCUAUCUCUGUGUCGUAUG [hsa-mir-380], for which the “pull-down binding Z-score” value was -0.0846 in data set [1]; -0.301 in data set [2]; -0.269 in data set [3]; -0.0393 in data set [4]; -0.0621 with TO-N3 (biotin conjugate).
As for UGAAGGUCACCAUGUUCUCCUUG [hsa-mir-3187], the “pull-down binding Z-score” value in data set [1] is 0.0716; in data set [2] it was -0.354; in data set [3] it was -0.816; in data set [4], -0.229; in the data set on TO-N3 (biotin conjugate), 0.145.
For “GGUUUCCUUCGGGGCAGGUGGGGACUGCUCCUUUGGGAGGAAGGAGGAGGCC [hsa-mir-4453]”, in that order: 2.21, 1.96, 1.28, 2.11 and 2.34.
CCAAAUUUCAUGCG [hsa-mir-4454]: the “pull-down binding Z-score” value in data set [1] is -0.0597; in data set [2], -0.18; in data set [3], -1.72; in data set [4], -0.0452; with TO-N3 (biotin conjugate), 0.0342.
For “CUGGGGACUGUGUGGACUGGUAUCACCCAG [hsa-mir-2278]”, in that order: -0.242, -0.298, 0.134, 0.585 and 0.225.
Taken in the same sequence, the figures for “UAGAUGUUAUAAAAAUAUAUAUCUG [hsa-mir-4680]” were -0.708, -0.189, 0.187, -1.07 and -1.08.

The values above are taken from the supplement of paper PMC11865577.
